B1: Serpin B3 (protein)
chain: MNSLSEANTKFMFDLFQQFRKSKENNIFYSPISITSALGMVLLGAKDNTAQQIKKVLHFDQVTENTTGKAATYHVDRSGNVHHQFQKLLTEFNKSTDAYELKIANKLFGEKTYLFLQEYLDAIKKFYQTSVESVDFANAPEESRKKINSWVESQTNEKIKNLIPEGNIGSNTTLVLVNAIYFKGQWEKKFNKEDTKEEKFWPNKNTYKSIQMMRQYTSFHFASLEDVQAKVLEIPYKGKDLSMIVLLPNEIDGLQKLEEKLTAEKLMEWTSLQNMRETRVDLHLPRFKVEESYDLKDTLRTMGMVDIFNGDADLSGMTGSRGLVLSGVLHKAFVEVTEEGAEAAAATAVVGFGSSPTSTNEEFHCNHPFLFFIRQNKTNSILFYGRFSSP
B2: Ig heavy chain V-I region HG3 (protein)
chain: QVQLVQSGAEVKKPGASVKVSCKASGYTFTSYYMHWVRQAPGQGLEWMGIINPSGGSTSYAQKFQGRVTMTRDTSTSTVYMELSSLRSEDTAVYYCAR
B3: Thioredoxin (protein)
chain: VKQIESKTAFQEALDAAGDKLVVVDFSATWCGPCKMIKPFFHSLSEKYSNVIFLEVDVDDCQDVASECEVKCMPTFQFFKKGQKVGEFSGANKEKLEATINELV
B4: Galectin-3-binding protein (protein)
chain: VNDGDMRLADGGATNQGRVEIFYRGQWGTVCDNLWDLTDASVVCRALGFENATQALGRAAFGQGSGPIMLDEVQCTGTEASLADCKSLGWLKSNCRHERDAGVVCTNETRSTHTLDLSRELSEALGQIFDSQRGCDLSISVNVQGEDALGFCGHTVILTANLEAQALWKEPGSNVTMSVDAECVPMVRDLLRYFYSRRIDITLSSVKCFHKLASAYGARQLQGYCASLFAILLPQDPSFQMPLDLYAYAVATGDALLEKLCLQFLAWNFEALTQAEAWPSVPTDLLQLLLPRSDLAVPSELALLKAVDTWSWGERASHEEVEGLVEKIRFPMMLPEELFELQFNLSLYWSHEALFQKKTLQALEFHTVPFQLLARYKGLNLTEDTYKPRIYTSPTWSAFVTDSSWSARKSQLVYQSRRGPLVKYSSDYFQAPSDYRYYPYQSFQTPQHPSFLFQDKRVSWSLVYLPTIQSCWNYGFSCSSDELPVLGLTKSGGSDRTIAYENKALMLCEGLFVADVTDFEGWKAAIPSALDTNSSKSTSSFPCPAGHFNGFRTVIRPFYLTNSSGVD
B5: Apolipoprotein F (protein)
chain: SLPTEDCENEKEQAVHNVVQLLPGVGTFYNLGTALYYATQNCLGKARERGRDGAIDLGYDLLMTMAGMSGGPMGLAISAALKPALRSGVQQLIQYYQDQKDANISQPETTKEGLRAISDVSDLEETTTLASFISEVVSSAPYWGWAIIKSYDLDPGAGSLEI
B6: Heterogeneous nuclear ribonucleoprotein R (protein)
chain: ANQVNGNAVQLKEEEEPMDTSSVTHTEHYKTLIEAGLPQKVAERLDEIFQTGLVAYVDLDERAIDALREFNEEGALSVLQQFKESDLSHVQNKSAFLCGVMKTYRQREKQGSKVQESTKGPDEAKIKALLERTGYTLDVTTGQRKYGGPPPDSVYSGVQPGIGTEVFVGKIPRDLYEDELVPLFEKAGPIWDLRLMMDPLSGQNRGYAFITFCGKEAAQEAVKLCDSYEIRPGKHLGVCISVANNRLFVGSIPKNKTKENILEEFSKVTEGLVDVILYHQPDDKKKNRGFCFLEYEDHKSAAQARRRLMSGKVKVWGNVVTVEWADPVEEPDPEVMAKVKVLFVRNLATTVTEEILEKSFSEFGKLERVKKLKDYAFVHFEDRGAAVKAMDEMNGKEIEGEEIEIVLAKPPDKKRKERQAARQASRSTAYEDYYYHPPPRMPPPIRGRGRGGGRGGYGYPPDYYGYEDYYDDYYGYDYHDYRGGYEDPYYGYDDGYAVRGRGGGRGGRGAPPPPRGRGAPPPRGRAGYSQRGAPLGPPRGSRGGRGGPAQQQRGRGSRGSRGNRGGNVGGKRKADGYNQPDSKRRQTNNQQNWGSQPIAQQPLQQGGDYSGNYGYNNDNQEFYQDTYGQQWK
B7: Immunoglobulin lambda-like polypeptide 1 (protein)
chain: LLRPTAASQSRALGPGAPGGSSRSSLRSRWGRFLLQRGSWTGPRCWPRGFQSKHNSVTHVFGSGTQLTVLSQPKATPSVTLFPPSSEELQANKATLVCLMNDFYPGILTVTWKADGTPITQGVEMTTPSKQSNNKYAASSYLSLTPEQWRSRRSYSCQVMHEGSTVEKTVAPAECS
B8: Isoform 2 of C4b-binding protein beta chain (protein)
chain: ASDEHCPELPPVDNSIFVAKEVEGQILGTYVCIKGYHLVGKKTLFCNASKEWDNTTTECRLGHCPDPVLVNGEFSSSGPVNVSDKITFMCNDHYILKGSNRSQCLEDHTWAPPFPICKSRDCDPPGNPVHGYFEGNNFTLGSTISYYCEDRYYLVGVQEQQCVDGEWSSALPVCKLIQEAPKPECEKALLAFQESKNLCEAMENFMQQLKESGMTMEELKYSLELKKAELKAKLL
B9: Cluster of Keratin, type II cytoskeletal 2 epidermal (protein, UniProt P35908 1-639, looked up)
Keratin, type II cytoskeletal …: MSCQISCKSRGRGGGGGGFRGFSSGSAVVSGGSRRSTSSFSCLSRHGGGGGGFGGGGFGSRSLVGLGGTKSISISVAGGGGGFGAAGGFGGRGGGFGGGSSFGGGSGFSGGGFGGGGFGGGRFGGFGGPGGVGGLGGPGGFGPGGYPGGIHEVSVNQSLLQPLNVKVDPEIQNVKAQEREQIKTLNNKFASFIDKVRFLEQQNQVLQTKWELLQQMNVGTRPINLEPIFQGYIDSLKRYLDGLTAERTSQNSELNNMQDLVEDYKKKYEDEINKRTAAENDFVTLKKDVDNAYMIKVELQSKVDLLNQEIEFLKVLYDAEISQIHQSVTDTNVILSMDNSRNLDLDSIIAEVKAQYEEIAQRSKEEAEALYHSKYEELQVTVGRHGDSLKEIKIEISELNRVIQRLQGEIAHVKKQCKNVQDAIADAEQRGEHALKDARNKLNDLEEALQQAKEDLARLLRDYQELMNVKLALDVEIATYRKLLEGEECRMSGDLSSNVTVSVTSSTISSNVASKAAFGGSGGRGSSSGGGYSSGSSSYGSGGRQSGSRGGSGGGGSISGGGYGSGGGSGGRYGSGGGSKGGSISGGGYGSGGGKHSSGGGSRGGSSSGGGYGSGGGGSSSVKGSSGEAFGSSVTFSFR

Tests used:
Experiment in all cases: Mass spectroscopy proteomics, semi-quantitative binding affinity of serum proteins (plaqueproteome, Table 2)
Conditions in all cases: higher number = stronger affinity
[1] = target: T1, Abeta-42 plaque particles (Homo sapiens, UniProt P05067)
T1 construct: Abeta 1-42
Outline: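 AD patient serum or plasma (50% in PBS) was incubated with Abeta-42 aggregates (30 μg) for 1 h at 37 °C, then stained with Thioflavin S for 30 min. Labeled particles were FACS-sorted, trypsin/Lys-C digested overnight and analyzed by MS/MS. Sequest searched human UniProt; Scaffold/Protein Prophet validated the identifications.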

[2] = tested on: High Density cholesterol (Chl Large) plaque particles; parameters: species or system human
Outline: (§1)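 Serum or plasma from atherosclerotic subjects, diluted to 50% in PBS, was incubated with cholesterol aggregates (30 μg per 1 mL reaction) at 37° C for 1 hr. Small and large cholesterol plaque particles were sorted by flow cytometry gating, trypsin-digested and analysed by MS/MS against a human UniProt database.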

[3] = tested on: Low density cholesterol (Chl small) plaque particles; parameters: species or system human
Outline: as §1

[4] = target: T2, alpha-synuclein plaque particles (Homo sapiens, UniProt P37840)
T2 construct: 140 amino acids polypeptide
Outline: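 AD-subject plasma or serum (800 μL of 50%) mixed with 30 μg preformed alpha-synuclein aggregates for 1 h at 37 °C; Thioflavin S-positive particles isolated by flow sorting. After reduction, acrylamide alkylation and overnight tryptic digestion, serum proteins identified by MS/MS with Sequest and Scaffold.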

Tau plaque particles = tested on: Tau plaque particles; parameters: species or system human
Outline: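 Serum or plasma proteins captured on Thioflavin S-labelled Tau plaque particles (Tau-74, Tau-275 oligomers preformed in PBS at 37° C for 2 h; 1 h co-incubation at 37° C) were isolated by FACS sorting, then tryptically digested and identified by MS/MS (Sequest, human UniProt, strict trypsin).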

Molecule | Semi-quantitative analysis of proteins binding to different plaque particles: Abeta-42 [1] | Semi-quantitative analysis of proteins binding to different plaque particles: Chl Large [2] | Semi-quantitative analysis of proteins binding to different plaque particles: Chl small [3] | Semi-quantitative analysis of proteins binding to different plaque particles: Synuclein [4] | Semi-quantitative analysis of proteins binding to different plaque particles: Tau (Tau plaque particles)
B1 | 2 | 0 | 0 | 0 | 0
B2 | 2 | 1 | 1 | 2 | 1
B3 | 2 | 0 | 0 | 0 | 0
B4 | 0 | 1 | 0 | 0 | 0
B5 | 0 | 0 | 1 | 2 | 1
B6 | 2 | 0 | 0 | 0 | 0
B7 | 0 | 0 | 1 | 0 | 0
B8 | 0 | 0 | 1 | 0 | 0
B9 | 171 | 14 | 20 | 3 | 24

— US9618524B2, “Method, composition, isolation and identification of a plaque particle and related biomarker” (Plaxgen Inc., priority 2012, dated 2017)
